These are literature values, as cited in patent publication US20080107649A1, “Immunogenic compositions of cyclic peptides derived from the beta-amyloid peptide” (Pevion Biotech Ltd., priority 2004, published 2008).

For this data set the following is noted: human, in vivo.

As to “Aβ1-42: β-amyloid peptide of 42 amino acids (SEQ ID NO: 1), predominantly found in the plaques”, the “side effect of inoculation” value was “severe side effect of cerebral inflammation in some patients”.
